Assay results: the supplement of paper PMC10567573

B1: GAGE1 (parent)
chain: QPPEMIGPMRPEQFSDEVEPATPE

Variants of: B1
Assay: protein stability index of a GFP-peptide fusion (GPS, HEK-293T) (PSI 1-6); higher = more stable
Settings: c terminus: a fixed tail appended
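Further: lentivirally expressed fusions sorted by FACS into six bins by GFP to DsRed ratio, PSI derived from sequencing read proportions per bin multiplied by bin number.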

| Variant | protein stability index |
| --- | --- |
| QPPEMYGPMRPEQFSDEVEPATPE [I6Y] | 5.65 |
| QPPEMNGPMRPEQFSDEVEPATPE [I6N] | 5.72 |
| QPPEMTGPMRPEQFSDEVEPATPE [I6T] | 5.72 |
| QPPEMVGPMRPEQFSDEVEPATPE [I6V] | 5.79 |
| QPPEMFGPMRPEQFSDEVEPATPE [I6F] | 5.89 |
| QPPEMWGPMRPEQFSDEVEPATPE [I6W] | 5.83 |
| QPPEMSGPMRPEQFSDEVEPATPE [I6S] | 6 |
| QPPEMMGPMRPEQFSDEVEPATPE [I6M] | 5.59 |
| QPPEMHGPMRPEQFSDEVEPATPE [I6H] | 5.72 |
| QPPEMKGPMRPEQFSDEVEPATPE [I6K] | 5.78 |
| QPPEMCGPMRPEQFSDEVEPATPE [I6C] | 5.91 |
| QPPEMPGPMRPEQFSDEVEPATPE [I6P] | 5.52 |
| QPPEMRGPMRPEQFSDEVEPATPE [I6R] | 5.86 |
| QPPEMDGPMRPEQFSDEVEPATPE [I6D] | 5.79 |
| QPPEMGGPMRPEQFSDEVEPATPE [I6G] | 5.45 |
| QPPEMLGPMRPEQFSDEVEPATPE [I6L] | 5.64 |
| QPPEMAGPMRPEQFSDEVEPATPE [I6A] | 5.59 |
| QPPEMEGPMRPEQFSDEVEPATPE [I6E] | 5.81 |
| QPPEMQGPMRPEQFSDEVEPATPE [I6Q] | 5.32 |
| QPPEMIGPMRPEQASDEVEPATPE [F14A] | 5.4 |
| QPPEMIGPMRPEQESDEVEPATPE [F14E] | 5.49 |
| QPPEMIGPMRPEQISDEVEPATPE [F14I] | 5.28 |
| QPPEMIGPMRPEQDSDEVEPATPE [F14D] | 5.8 |
| QPPEMIGPMRPEQHSDEVEPATPE [F14H] | 5.46 |

| Variant | protein stability index |
| --- | --- |
| QPPEMIGPMRPEQKSDEVEPATPE [F14K] | 4.13 |
| QPPEMIGPMRPEQRSDEVEPATPE [F14R] | 5.72 |
| QPPEMIGPMRPEQTSDEVEPATPE [F14T] | 5.81 |
| QPPEMIGPMRPEQYSDEVEPATPE [F14Y] | 4.75 |
| QPPEMIGPMRPEQGSDEVEPATPE [F14G] | 5.68 |
| QPPEMIGPMRPEQPSDEVEPATPE [F14P] | 5.84 |
| QPPEMIGPMRPEQWSDEVEPATPE [F14W] | 5.65 |
| QPPEMIGPMRPEQLSDEVEPATPE [F14L] | 5.61 |
| QPPEMIGPMRPEQSSDEVEPATPE [F14S] | 5.97 |
| QPPEMIGPMRPEQVSDEVEPATPE [F14V] | 5.48 |
| QPPEMIGPMRPEQCSDEVEPATPE [F14C] | 5.29 |
| QPPEMIGPMRPEQMSDEVEPATPE [F14M] | 5.57 |
| QPPEMIGPMRPEQQSDEVEPATPE [F14Q] | 5.56 |
| QPPEMIGPMRPEQNSDEVEPATPE [F14N] | 5.87 |
| QPPEYIGPMRPEQFSDEVEPATPE [M5Y] | 4.99 |
| QPPEMIGPMRKEQFSDEVEPATPE [P11K] | 5.63 |
| QPPEMIGPMRMEQFSDEVEPATPE [P11M] | 4.9 |
| QPPEMIGPMRCEQFSDEVEPATPE [P11C] | 5.5 |
| QPPEMIGPMRTEQFSDEVEPATPE [P11T] | 5.61 |
| QPPEMIGPMRLEQFSDEVEPATPE [P11L] | 5.37 |
| QPPEMIGPMRREQFSDEVEPATPE [P11R] | 5.55 |
| QPPEMIGPMRDEQFSDEVEPATPE [P11D] | 5.69 |
| QPPEMIGPMRGEQFSDEVEPATPE [P11G] | 5.65 |
| QPPEMIGPMRIEQFSDEVEPATPE [P11I] | 4.87 |

| Variant | protein stability index |
| --- | --- |
| QPPEMIGPMRYEQFSDEVEPATPE [P11Y] | 5.43 |
| QPPEMIGPMRNEQFSDEVEPATPE [P11N] | 5.44 |
| QPPEMIGPMRSEQFSDEVEPATPE [P11S] | 5.6 |
| QPPEMIGPMREEQFSDEVEPATPE [P11E] | 5.69 |
| QPPEMIGPMRQEQFSDEVEPATPE [P11Q] | 5.34 |
| QPPEMIGPMRHEQFSDEVEPATPE [P11H] | 5.82 |
| QPPEMIGPMRWEQFSDEVEPATPE [P11W] | 5.39 |
| QPPEMIGPMRAEQFSDEVEPATPE [P11A] | 5.35 |
| QPPEMIGPMRVEQFSDEVEPATPE [P11V] | 5.7 |
| QPPEMIGPMRFEQFSDEVEPATPE [P11F] | 5.5 |
| QPPEMIGPMHPEQFSDEVEPATPE [R10H] | 5.2 |
| QPPEMIGPMTPEQFSDEVEPATPE [R10T] | 4.38 |
| QPPEMIGPMWPEQFSDEVEPATPE [R10W] | 5.34 |
| QPPEMIGPMPPEQFSDEVEPATPE [R10P] | 5.78 |
| QPPEMIGPMNPEQFSDEVEPATPE [R10N] | 5.28 |
| QPPEMIGPMDPEQFSDEVEPATPE [R10D] | 3.42 |
| QPPEMIGPMIPEQFSDEVEPATPE [R10I] | 5.24 |
| QPPEMIGPMAPEQFSDEVEPATPE [R10A] | 5.17 |
| QPPEMIGPMLPEQFSDEVEPATPE [R10L] | 4.37 |
| QPPEMIGPMVPEQFSDEVEPATPE [R10V] | 4.98 |
| QPPEMIGPMGPEQFSDEVEPATPE [R10G] | 4.82 |
| QPPEMIGPMQPEQFSDEVEPATPE [R10Q] | 4.4 |
| QPPEMIGPMSPEQFSDEVEPATPE [R10S] | 5.56 |
| QPPEMIGPMMPEQFSDEVEPATPE [R10M] | 5.12 |

| Variant | protein stability index |
| --- | --- |
| QPPEMIGPMFPEQFSDEVEPATPE [R10F] | 5.47 |
| QPPEMIGPMEPEQFSDEVEPATPE [R10E] | 5 |
| QPPEMIGPMCPEQFSDEVEPATPE [R10C] | 5.51 |
| QPPEMIGPMYPEQFSDEVEPATPE [R10Y] | 5.24 |
| QPPEMIGPMKPEQFSDEVEPATPE [R10K] | 4.93 |
| QPPEMIGPMRPERFSDEVEPATPE [Q13R] | 5.58 |
| QPPEMIGPMRPETFSDEVEPATPE [Q13T] | 5.84 |
| QPPEMIGPMRPEPFSDEVEPATPE [Q13P] | 5.91 |
| QPPEMIGPMRPEAFSDEVEPATPE [Q13A] | 5.12 |
| QPPEMIGPMRPEWFSDEVEPATPE [Q13W] | 5.36 |
| QPPEMIGPMRPEIFSDEVEPATPE [Q13I] | 5.6 |
| QPPEMIGPMRPEGFSDEVEPATPE [Q13G] | 5.78 |
| QPPEMIGPMRPEHFSDEVEPATPE [Q13H] | 5.45 |
| QPPEMIGPMRPELFSDEVEPATPE [Q13L] | 5.64 |
| QPPEMIGPMRPEFFSDEVEPATPE [Q13F] | 5.02 |
| QPPEMIGPMRPEYFSDEVEPATPE [Q13Y] | 5.5 |
| QPPEMIGPMRPESFSDEVEPATPE [Q13S] | 5.46 |
| QPPEMIGPMRPEMFSDEVEPATPE [Q13M] | 4.96 |
| QPPEMIGPMRPEVFSDEVEPATPE [Q13V] | 5.62 |
| QPPEMIGPMRPEEFSDEVEPATPE [Q13E] | 4.65 |
| QPPEMIGPMRPECFSDEVEPATPE [Q13C] | 5.59 |
| QPPEMIGPMRPEKFSDEVEPATPE [Q13K] | 5.34 |
